{
  "source": "the supplement of paper PMC7125110",
  "parents": {"B1": {"name": "glmS ribozyme (parent)", "chain": "AUAAAAGCGCCAGAACUACAGAAAUGUAGUUGACGAGGAGGAGGUUUAUCGAAUUUUCGGCGGAUGCCUCCAAA"}},
  "settings_in_all_cases": "with glucosamine-6-phosphate",
  "key": {"[1]": {"variants_of": "B1", "experiment": "self-cleavage kobs at 640 uM GlcN6P; higher = faster cleavage; RNA array", "method_in_brief": "(§1)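 kcat and KM were obtained from weighted Michaelis–Menten fits across concentrations of kobs values. Those came from one- or two-exponential decay fits to per-tile medians normalised to baseline and to non-cleaving reference variants. The variants were barcoded ribozymes transcribed in situ by E. coli RNA polymerase on sequenced MiSeq chips and tracked through a hybridised Cy3 probe at 37 °C, with 40 μM to 10 mM glucosamine-6-phosphate in HEPES/KCl/Mg(OAc)2 buffer flowed in.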"}, "[2]": {"variants_of": "B1", "experiment": "self-cleavage kobs at 2500 uM GlcN6P; higher = faster cleavage; RNA array", "method_in_brief": "as §1"}, "[3]": {"variants_of": "B1", "experiment": "self-cleavage kobs at 10000 uM GlcN6P; higher = faster cleavage; RNA array", "method_in_brief": "as §1"}},
  "note": "± gives the standard error. Fewer inactive variants are shown than the library holds.",
  "data": [
    {"variant": "A6G G9A A39C A42U U46A A53U C68U C71G", "values": [
      {"measurement": "self-cleavage kobs at 640 uM GlcN6P", "setting": "[1]", "value": "< 1e-05", "unit": "s⁻¹"}
    ]},
    {"variant": "G38U A52C A53C C68A C71U", "values": [
      {"measurement": "self-cleavage kobs at 640 uM GlcN6P", "setting": "[1]", "value": "0.000617 ± 0.00024", "unit": "s⁻¹"}
    ]},
    {"variant": "G38U U56G C70A", "values": [
      {"measurement": "self-cleavage kobs at 640 uM GlcN6P", "setting": "[1]", "value": "0.000333 ± 0.00015", "unit": "s⁻¹"}
    ]},
    {"variant": "A12U A33C G41U G62C", "values": [
      {"measurement": "self-cleavage kobs at 640 uM GlcN6P", "setting": "[1]", "value": "< 1e-05", "unit": "s⁻¹"},
      {"measurement": "self-cleavage kobs at 2500 uM GlcN6P", "setting": "[2]", "value": "< 1e-05", "unit": "s⁻¹"}
    ]},
    {"variant": "A12G U46A", "values": [
      {"measurement": "self-cleavage kobs at 640 uM GlcN6P", "setting": "[1]", "value": "6e-05 ± 1.9e-05", "unit": "s⁻¹"},
      {"measurement": "self-cleavage kobs at 2500 uM GlcN6P", "setting": "[2]", "value": "4.25e-05 ± 1.5e-05", "unit": "s⁻¹"},
      {"measurement": "self-cleavage kobs at 10000 uM GlcN6P", "setting": "[3]", "value": "0.000187 ± 4.1e-05", "unit": "s⁻¹"}
    ]},
    {"variant": "C8G A14C G63A", "values": [
      {"measurement": "self-cleavage kobs at 640 uM GlcN6P", "setting": "[1]", "value": "< 1e-05", "unit": "s⁻¹"},
      {"measurement": "self-cleavage kobs at 2500 uM GlcN6P", "setting": "[2]", "value": "< 1e-05", "unit": "s⁻¹"}
    ]},
    {"variant": "A12G G63A A64C", "values": [
      {"measurement": "self-cleavage kobs at 640 uM GlcN6P", "setting": "[1]", "value": "< 1e-05", "unit": "s⁻¹"}
    ]},
    {"variant": "C10G G44C", "values": [
      {"measurement": "self-cleavage kobs at 640 uM GlcN6P", "setting": "[1]", "value": "< 1e-05", "unit": "s⁻¹"},
      {"measurement": "self-cleavage kobs at 2500 uM GlcN6P", "setting": "[2]", "value": "< 1e-05", "unit": "s⁻¹"}
    ]},
    {"variant": "A6C G9U A52G", "values": [
      {"measurement": "self-cleavage kobs at 640 uM GlcN6P", "setting": "[1]", "value": "< 1e-05", "unit": "s⁻¹"},
      {"measurement": "self-cleavage kobs at 10000 uM GlcN6P", "setting": "[3]", "value": "< 1e-05", "unit": "s⁻¹"}
    ]},
    {"variant": "A14C A39G C70U", "values": [
      {"measurement": "self-cleavage kobs at 640 uM GlcN6P", "setting": "[1]", "value": "0.000886 ± 0.00029", "unit": "s⁻¹"}
    ]},
    {"variant": "A42C A64U U69G", "values": [
      {"measurement": "self-cleavage kobs at 640 uM GlcN6P", "setting": "[1]", "value": "4.76e-05 ± 1.2e-05", "unit": "s⁻¹"},
      {"measurement": "self-cleavage kobs at 2500 uM GlcN6P", "setting": "[2]", "value": "9.13e-05 ± 1.9e-05", "unit": "s⁻¹"}
    ]},
    {"variant": "A24C A52U G59A", "values": [
      {"measurement": "self-cleavage kobs at 640 uM GlcN6P", "setting": "[1]", "value": "< 1e-05", "unit": "s⁻¹"},
      {"measurement": "self-cleavage kobs at 10000 uM GlcN6P", "setting": "[3]", "value": "< 1e-05", "unit": "s⁻¹"}
    ]},
    {"variant": "A15C A33C A36C", "values": [
      {"measurement": "self-cleavage kobs at 640 uM GlcN6P", "setting": "[1]", "value": "< 1e-05", "unit": "s⁻¹"}
    ]},
    {"variant": "C8U G13A U46A G51C G59A", "values": [
      {"measurement": "self-cleavage kobs at 640 uM GlcN6P", "setting": "[1]", "value": "< 1e-05", "unit": "s⁻¹"}
    ]},
    {"variant": "G13C A15C A52U G66C", "values": [
      {"measurement": "self-cleavage kobs at 640 uM GlcN6P", "setting": "[1]", "value": "< 1e-05", "unit": "s⁻¹"}
    ]},
    {"variant": "C10U C16U G63U", "values": [
      {"measurement": "self-cleavage kobs at 640 uM GlcN6P", "setting": "[1]", "value": "< 1e-05", "unit": "s⁻¹"},
      {"measurement": "self-cleavage kobs at 10000 uM GlcN6P", "setting": "[3]", "value": "< 1e-05", "unit": "s⁻¹"}
    ]},
    {"variant": "A36U U56A", "values": [
      {"measurement": "self-cleavage kobs at 640 uM GlcN6P", "setting": "[1]", "value": "< 1e-05", "unit": "s⁻¹"},
      {"measurement": "self-cleavage kobs at 10000 uM GlcN6P", "setting": "[3]", "value": "< 1e-05", "unit": "s⁻¹"}
    ]},
    {"variant": "A14G A33U G44U U47C G63U", "values": [
      {"measurement": "self-cleavage kobs at 640 uM GlcN6P", "setting": "[1]", "value": "< 1e-05", "unit": "s⁻¹"},
      {"measurement": "self-cleavage kobs at 2500 uM GlcN6P", "setting": "[2]", "value": "< 1e-05", "unit": "s⁻¹"},
      {"measurement": "self-cleavage kobs at 10000 uM GlcN6P", "setting": "[3]", "value": "< 1e-05", "unit": "s⁻¹"}
    ]},
    {"variant": "G35C A39C G43C U56A", "values": [
      {"measurement": "self-cleavage kobs at 640 uM GlcN6P", "setting": "[1]", "value": "< 1e-05", "unit": "s⁻¹"}
    ]},
    {"variant": "U30A A33G U57C", "values": [
      {"measurement": "self-cleavage kobs at 640 uM GlcN6P", "setting": "[1]", "value": "< 1e-05", "unit": "s⁻¹"}
    ]},
    {"variant": "A6G C11U G60A C71U", "values": [
      {"measurement": "self-cleavage kobs at 640 uM GlcN6P", "setting": "[1]", "value": "< 1e-05", "unit": "s⁻¹"},
      {"measurement": "self-cleavage kobs at 2500 uM GlcN6P", "setting": "[2]", "value": "< 1e-05", "unit": "s⁻¹"}
    ]},
    {"variant": "G13C G29C G44U C50A G62C", "values": [
      {"measurement": "self-cleavage kobs at 640 uM GlcN6P", "setting": "[1]", "value": "< 1e-05", "unit": "s⁻¹"},
      {"measurement": "self-cleavage kobs at 2500 uM GlcN6P", "setting": "[2]", "value": "< 1e-05", "unit": "s⁻¹"},
      {"measurement": "self-cleavage kobs at 10000 uM GlcN6P", "setting": "[3]", "value": "< 1e-05", "unit": "s⁻¹"}
    ]},
    {"variant": "G9C A15G G38C G60A", "values": [
      {"measurement": "self-cleavage kobs at 640 uM GlcN6P", "setting": "[1]", "value": "< 1e-05", "unit": "s⁻¹"},
      {"measurement": "self-cleavage kobs at 2500 uM GlcN6P", "setting": "[2]", "value": "< 1e-05", "unit": "s⁻¹"}
    ]},
    {"variant": "G41U U45G U47A C71U", "values": [
      {"measurement": "self-cleavage kobs at 640 uM GlcN6P", "setting": "[1]", "value": "5.62e-05 ± 2.2e-05", "unit": "s⁻¹"}
    ]},
    {"variant": "C19A A33U", "values": [
      {"measurement": "self-cleavage kobs at 640 uM GlcN6P", "setting": "[1]", "value": "4.59e-05 ± 2.2e-05", "unit": "s⁻¹"},
      {"measurement": "self-cleavage kobs at 2500 uM GlcN6P", "setting": "[2]", "value": "0.000114 ± 2.6e-05", "unit": "s⁻¹"}
    ]},
    {"variant": "U31A C34U G51U", "values": [
      {"measurement": "self-cleavage kobs at 640 uM GlcN6P", "setting": "[1]", "value": "< 1e-05", "unit": "s⁻¹"},
      {"measurement": "self-cleavage kobs at 2500 uM GlcN6P", "setting": "[2]", "value": "< 1e-05", "unit": "s⁻¹"}
    ]},
    {"variant": "A42C G43C C70U", "values": [
      {"measurement": "self-cleavage kobs at 640 uM GlcN6P", "setting": "[1]", "value": "< 1e-05", "unit": "s⁻¹"}
    ]},
    {"variant": "A14C C16A C71G", "values": [
      {"measurement": "self-cleavage kobs at 640 uM GlcN6P", "setting": "[1]", "value": "6.58e-05 ± 2.7e-05", "unit": "s⁻¹"},
      {"measurement": "self-cleavage kobs at 2500 uM GlcN6P", "setting": "[2]", "value": "4.2e-05 ± 2.1e-05", "unit": "s⁻¹"}
    ]},
    {"variant": "A14U A15C A33C C61G U65G", "values": [
      {"measurement": "self-cleavage kobs at 640 uM GlcN6P", "setting": "[1]", "value": "< 1e-05", "unit": "s⁻¹"},
      {"measurement": "self-cleavage kobs at 2500 uM GlcN6P", "setting": "[2]", "value": "< 1e-05", "unit": "s⁻¹"}
    ]},
    {"variant": "G7U A39C U57G G63C C68U", "values": [
      {"measurement": "self-cleavage kobs at 640 uM GlcN6P", "setting": "[1]", "value": "< 1e-05", "unit": "s⁻¹"},
      {"measurement": "self-cleavage kobs at 2500 uM GlcN6P", "setting": "[2]", "value": "< 1e-05", "unit": "s⁻¹"}
    ]},
    {"variant": "A14C U49G U54G C68G", "values": [
      {"measurement": "self-cleavage kobs at 640 uM GlcN6P", "setting": "[1]", "value": "7.91e-05 ± 3.6e-05", "unit": "s⁻¹"}
    ]}
  ]
}
